# Results as given in patent publication US10745460B2, “Peptides and combination of peptides for use in immunotherapy against various tumors” (Immatics Biotechnologies GmbH, priority 2015, dated 2020).
# Target: HLA-A*02:01 (Homo sapiens, UniProt P04439, D140Y/D185E/D98H/E176V/E277Q/G131W/G231S/I119V/I121R/I166T/I218V/L300P/L318F/N151K/N90K/P208A/P217A/Q86G/Q94H/R138H/R169H/T345S)
# Experiment: MHC binding assay: UV-ligand exchange with β2m ELISA (peptide exchange yield)
# Conditions: binding to HLA-A*02:01 evaluated by peptide exchange yield (UV-ligand exchange, β2m ELISA)
# Summary of the method: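 Binding capacity is expressed as the yield of UV-mediated ligand exchange, reflecting how well each peptide stabilizes peptide-receptive MHC. Stabilized complexes are read out by anti-β2m HRP ELISA (450 nm) after streptavidin capture, with refolded MLA-001 monomer standards for quantitation.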
row,Peptide exchange,Substance
1,+++ (≥50 = +++),233 (SLFESLEYL; listed as Homo sapiens) [compound 233]
2,++++ (≥75% = ++++),234 (VLLNEILEQV; listed as Homo sapiens) [compound 234]
3,++ (≥20% = ++),235 (SLLNQPKAV; listed as Homo sapiens) [compound 235]
4,+++ (≥50 = +++),236 (KMSELQTYV; listed as Homo sapiens) [compound 236]
5,+++ (≥50 = +++),237 (ALLEQTGDMSL; listed as Homo sapiens) [compound 237]
6,++ (≥20% = ++),238 (HLQEKLQSL; listed as Homo sapiens) [compound 238]
7,+++ (≥50 = +++),239 (VIIKGLEEITV; listed as Homo sapiens) [compound 239]
8,+++ (≥50 = +++),241 (KQFEGTVEI; listed as Homo sapiens) [compound 241]
9,+++ (≥50 = +++),242 (KLQEEIPVL; listed as Homo sapiens) [compound 242]
10,++ (≥20% = ++),243 (GLAEFQENV; listed as Homo sapiens) [compound 243]
11,+++ (≥50 = +++),244 (NVAEIVIHI; listed as Homo sapiens) [compound 244]
12,++ (≥20% = ++),245 (ALLEEEEGV; listed as Homo sapiens) [compound 245]
13,+++ (≥50 = +++),246 (ALAGIVTNV; listed as Homo sapiens) [compound 246]
14,++ (≥20% = ++),247 (NLLIDDKGTIKL; listed as Homo sapiens) [compound 247]
15,+++ (≥50 = +++),248 (VLMQDSRLYL; listed as Homo sapiens) [compound 248]
16,+++ (≥50 = +++),249 (YLYQILQGI; listed as Homo sapiens) [compound 249]
17,+++ (≥50 = +++),250 (LMQDSRLYL; listed as Homo sapiens) [compound 250]
18,+++ (≥50 = +++),251 (LLWGNLPEI; listed as Homo sapiens) [compound 251]
19,++ (≥20% = ++),252 (SLMEKNQSL; listed as Homo sapiens) [compound 252]
20,+++ (≥50 = +++),253 (KLLAVIHEL; listed as Homo sapiens) [compound 253]
21,++ (≥20% = ++),254 (ALGDKFLLRV; listed as Homo sapiens) [compound 254]
22,+++ (≥50 = +++),255 (FLMKNSDLYGA; listed as Homo sapiens) [compound 255]
23,+++ (≥50 = +++),256 (FLNDIFERI; listed as Homo sapiens) [compound 256]
24,+++ (≥50 = +++),257 (KLIDHQGLYL; listed as Homo sapiens) [compound 257]
25,++ (≥20% = ++),258 (QLVQRVASV; listed as Homo sapiens) [compound 258]
26,+ (≥10% = +),259 (GPGIFPPPPPQP; listed as Homo sapiens) [compound 259]
27,+++ (≥50 = +++),260 (ALNESLVEC; listed as Homo sapiens) [compound 260]

row,Peptide exchange,Substance
1,+++ (≥50 = +++),261 (GLAALAVHL; listed as Homo sapiens) [compound 261]
2,+++ (≥50 = +++),262 (LLLEAVWHL; listed as Homo sapiens) [compound 262]
3,+++ (≥50 = +++),263 (SIIEYLPTL; listed as Homo sapiens) [compound 263]
4,++ (≥20% = ++),264 (TLHDQVHLL; listed as Homo sapiens) [compound 264]
5,+++ (≥50 = +++),265 (FLLDKPQDLSI; listed as Homo sapiens) [compound 265]
6,++ (≥20% = ++),266 (FLLDKPQDL; listed as Homo sapiens) [compound 266]
7,+++ (≥50 = +++),267 (YLLDMPLWYL; listed as Homo sapiens) [compound 267]
8,++ (≥20% = ++),268 (SLDKDIVAL; listed as Homo sapiens) [compound 268]
9,++++ (≥75% = ++++),269 (GLLDCPIFL; listed as Homo sapiens) [compound 269]
10,+++ (≥50 = +++),270 (TLLTFFHEL; listed as Homo sapiens) [compound 270]
11,+++ (≥50 = +++),271 (VLIEYNFSI; listed as Homo sapiens) [compound 271]
12,++ (≥20% = ++),272 (FVMEGEPPKL; listed as Homo sapiens) [compound 272]
13,++ (≥20% = ++),273 (SLNKQIETV; listed as Homo sapiens) [compound 273]
14,+++ (≥50 = +++),274 (TLYNPERTITV; listed as Homo sapiens) [compound 274]
15,++ (≥20% = ++),275 (AVPPPPSSV; listed as Homo sapiens) [compound 275]
16,+++ (≥50 = +++),276 (RMPTVLQCV; listed as Homo sapiens) [compound 276]
17,+++ (≥50 = +++),277 (KLQEELNKV; listed as Homo sapiens) [compound 277]
18,+++ (≥50 = +++),278 (VLEDKVLSV; listed as Homo sapiens) [compound 278]
19,++ (≥20% = ++),279 (VLMDEGAVLTL; listed as Homo sapiens) [compound 279]
20,+++ (≥50 = +++),280 (HLWGHALFL; listed as Homo sapiens) [compound 280]
21,++ (≥20% = ++),281 (LLLESDPKVYSL; listed as Homo sapiens) [compound 281]
22,++ (≥20% = ++),282 (SLYALHVKA; listed as Homo sapiens) [compound 282]
23,+++ (≥50 = +++),283 (ALSELLQQV; listed as Homo sapiens) [compound 283]
24,++ (≥20% = ++),284 (KLMDPGSLPPL; listed as Homo sapiens) [compound 284]
25,+++ (≥50 = +++),285 (MLLDTVQKV; listed as Homo sapiens) [compound 285]
26,+++ (≥50 = +++),286 (FLTEMVHFI; listed as Homo sapiens) [compound 286]

# Tested on: CD8+ T cells
# Experiment: In vitro T-cell priming assay with aAPCs loaded with peptide/MHC complexes and anti-CD28 antibody (in vitro immunogenicity)
# Format: cell-based, human
# Conditions: percentage of positive donors, healthy HLA-A*02 donors
# From the text: In order to obtain information regarding the immunogenicity of the TUMAPs of the present invention, the inventors performed investigations using an in vitro T-cell priming assay based on repeated stimulations of CD8+ T cells with artificial antigen presenting cells (aAPCs) loaded with peptide/MHC complexes and anti-CD28 antibody.
# In order to perform in vitro stimulations by artificial antigen presenting cells loaded with peptide-MHC complex (pMHC) and anti-CD28 antibody, the inventors first isolated CD8+ T cells from fresh HLA-A*02 leukapheresis products via positive selection using CD8 microbeads (Miltenyi Biotec, Bergisch-Gladbach, Germany) of healthy donors obtained from the University clinics Mannheim, Germany, after informed consent. […] Generation of pMHC/anti-CD28 coated beads, T-cell stimulations and readout was performed in a highly defined in vitro system using four different pMHC molecules per stimulation condition and 8 different pMHC molecules per readout condition. […]
# 800.000 beads/200 μl were coated in 96-well plates in the presence of 4×12.5 ng different biotin-pMHC, washed and 600 ng biotin anti-CD28 were added subsequently in a volume of 200 μl. […] Peptide specific cells were calculated as percentage of total CD8+ cells. […] In vitro priming of specific multimer+ CD8+ lymphocytes was detected by comparing to negative control stimulations. […]
row,Substance,donors
1,288 (SLYKGLLSV; listed as Homo sapiens) [compound 288],++++ (>=70% = ++++)

# Same assay, conditions: percentage of positive wells, healthy HLA-A*02 donors
row,Substance,wells
1,287 (KIQEILTQV; listed as Homo sapiens) [compound 287],+ (<20% = +)
